Results reported in PMC8919193.
Blank lines part the entries; values can stand above or below the substance they belong to.

Key:
[1] = molecular target: unmodified nucleosome, H3K79Nle, Alexa Fluor 488 on H2A(L65C) (human) (UniProt P62807); assay: FRET or BRET
[2] = molecular target: Alexa Fluor 488-labeled H2BK120ub nucleosome, H2A(L65C), H3K79Nle (UniProt P0CG47); assay: other fluorescence titration
[3] = molecular target: unmodified and H2BK120ub nucleosomes; assay: FRET or BRET

Kd [1]: 38 nM
Substance: DOT1Lcat(F326A, C45A, C75A, C179A, N324C), Atto647N-labeled (from UniProt Q8TEK3 1-416) (domain or fragment)

Kd [2]: 120 nM
Substance: DOT1Lcat (human DOT1L residues 1–416) (from UniProt Q8TEK3 1-416) (domain or fragment)

Kd [3]: 32 to 36 nM
Substance: Atto647N-labeled DOT1Lcat(C45A, C75A, C179A, N324C) (from UniProt Q8TEK3 1-416) (domain or fragment)
